Data as given in patent publication US20140037624A1.

What was measured:
[1] = molecular target: T1, human FGFR4-Fc chimeric protein (human) (UniProt P22455); test: solid phase binding assay, LD1 on immobilized hFGFR4-Fc, OD 450 nm
T1 sequence: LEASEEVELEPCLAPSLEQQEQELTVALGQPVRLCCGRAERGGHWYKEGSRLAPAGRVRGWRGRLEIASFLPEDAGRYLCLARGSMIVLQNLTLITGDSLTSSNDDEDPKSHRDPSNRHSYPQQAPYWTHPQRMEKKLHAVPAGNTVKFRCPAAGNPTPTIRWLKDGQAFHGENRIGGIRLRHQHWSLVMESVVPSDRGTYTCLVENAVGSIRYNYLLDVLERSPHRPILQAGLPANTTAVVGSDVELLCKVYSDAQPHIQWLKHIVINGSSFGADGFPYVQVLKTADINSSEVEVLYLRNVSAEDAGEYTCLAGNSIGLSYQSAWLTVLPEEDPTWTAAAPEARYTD

[2] = molecular target: T2, mouse FGFR4-Fc chimeric protein (mouse) (UniProt Q03142); test: solid phase binding assay, LD1 on immobilized mFGFR4-Fc, OD 450 nm
T2 sequence (looked up): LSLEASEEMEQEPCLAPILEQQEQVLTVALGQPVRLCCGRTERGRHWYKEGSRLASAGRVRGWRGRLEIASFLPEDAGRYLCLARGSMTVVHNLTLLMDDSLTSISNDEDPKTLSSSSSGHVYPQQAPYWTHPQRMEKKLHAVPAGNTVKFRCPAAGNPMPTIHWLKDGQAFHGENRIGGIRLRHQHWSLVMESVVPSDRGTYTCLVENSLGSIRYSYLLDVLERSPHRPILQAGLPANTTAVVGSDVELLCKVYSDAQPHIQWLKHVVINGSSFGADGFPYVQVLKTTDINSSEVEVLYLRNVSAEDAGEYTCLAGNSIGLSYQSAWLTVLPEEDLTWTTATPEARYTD

[3] = molecular target: human FGFR4 at the cell surface (stably transfected HEK293 and L6 cells; endogenous on human liver cancer cell lines) (human) (UniProt P22455); test: flow cytometry on HEK293 cells stably transfected with hFGFR4, RFU
[4] = molecular target: human FGFR4 at the cell surface (stably transfected HEK293 and L6 cells; endogenous on human liver cancer cell lines) (human) (UniProt P22455); test: cell-based or functional assay

B1: chimeric LD1 (murine LD1 variable domains with human kappa and human IgG1 constant domains) (antibody, V domains shown)
VH: EVQLQQPGAVLVRPGTSVKLSCKASGYTFTNHWMNWVKQRPGQGLEWIGMIHPSDSETTLDQKFKDKATLTVDKSSSTAYMQLNRPTSEDSAVYYCTRGDISLFDYWGQGTTVTVSS
VL: DIQMTQTTSSLSASLGDRVTITCRTSQDISNFLNWYQQKPDGTFKILISYTSRLHSGVPSRFSGSGSGTDYSLTISTLEQEDFATYFCQQGNALPYTFGGGTKLEIE
[1]
  EC50 (read off the curve): 0.04 µg/mL
[2]
  EC50 (read off the curve): 0.04 µg/mL
[3]
  EC50 (read off the curve): 0.5 µg/mL
[4]
  CYP7α1 expression in HEP3B cells with added FGF19: 67%
  CYP7α1 expression in HEP3B cells without added FGF19: 2 fold
  CYP7α1 expression in HUH7 cells in the absence of FGF19: 3.5 fold
  CYP7α1 expression in HUH7 cells in the presence of FGF19: 2.9 fold
  decrease of basal c-Fos expression in JHH5, JHH7 and HUH7 cell lines: 50%
  decrease of basal c-Fos expression in the PLC/PRF/5 cell line: 75%
  maximum inhibition of colony formation, HUH7 cells: 50%
  maximum inhibition of colony formation, JHH5 cells: 26%
  maximum inhibition of colony formation, PLC/PRF/5 cells: 82%
